Reference: the supplement of paper PMC10567573

B1: ZNF449 (parent)
chain: CTHCSKSFRQRAGLIMHQVTHFRG

Variants of: B1
Assay: protein stability index of a GFP-peptide fusion (GPS, HEK-293T) (PSI 1-6); higher = more stable
Details: c terminus: a fixed tail appended
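Note: lentivirally expressed fusions sorted by FACS into six bins by GFP to DsRed ratio, PSI derived from sequencing read proportions per bin multiplied by bin number.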

Protein stability index of substitutions, site by site:
F8: V 1.07, E 2.19, K 1.9, T 1.7, H 1.44, M 1.38, I 2.15, L 1.79
R23: T 2.03, H 1.62, C 2.56, S 2.07, L 3.36, V 3.18, P 2.69
M16: S 3.15, T 2.78, E 3.85, Y 1.57, V 2, F 2.18, D 3.52, R 3.9, G 3.45
F22: M 2.18, V 2.14, A 1.72, P 1.58, L 1.93, W 1.08, D 2.37
V19: W 2.71, D 1.81, H 1.89, G 2.74, Y 2.55, L 2.92, I 2.91
I15: F 2.4, N 1.73, P 1.22, K 2.36, A 2.39, T 2.3, M 2.49, W 2.9
G13: P 1.23, H 1.4, T 2.36, I 1.96, Q 2.87, K 2.06, F 1.95, E 3.16
T2: K 2.25, G 1.5, N 2.29, F 1.45, R 2.18, Q 2.84, D 1.86, L 1.97, V 1.98, P 1.82
R11: S 1.48, P 1.84, F 2.46, V 2.23, W 1.94, T 1.69, M 3.23
C4: P 1.6, M 1.68, A 2.6, T 2.18, D 1.66, E 1.77
L14: K 2.05, T 2.09, Q 2.02, E 1.95, W 2.05, V 2.37
H17: N 1.43, R 1.82, I 2.52, E 2.36, P 1.03
Q18: D 2.79, W 1.29, T 1.43, C 1.9
H21: E 1.89, Q 1.35, K 2.28, T 1.47, L 1.97, M 2.56, V 1.91, C 2.53, S 1.29
A12: P 2.69, K 3.49, R 3.35, N 2.06, T 2.2, G 2.44, V 1.48, Y 1.9
G24: N 2.91, E 2.88, M 2.81, Q 3.19, V 3.46, L 3.55, A 2.82
R9: D 3.85, P 2.29, A 2.58, G 2.18
Q10: R 1.6, T 2.75, K 2.58, P 1.76, M 1.86, E 2.61, W 2.77
S5: R 1.7, E 1.67, W 2.06, C 2.1, D 1.73
K6: D 1.62, E 1.58
H3: S 1.66, D 3.44, P 1.04, Q 1.45
T20: H 2.33, S 1.45, G 2.06, Y 2.05, L 1.43, C 1.52, K 2.33, W 2.09, V 1.73, N 2.44, Q 1.83, R 2.14
S7: P 1.59, A 2.14, I 1.73, C 2.98, Y 2.44, T 1.08, Q 1.76, K 2.62, N 2.58
C1: M 1.53, S 1.91, R 1.93, F 1.22, A 2.17, N 1.72, I 1.74, E 1.77
